{"source": "patent US20140072613A1", "about": "“Compositions and Methods for Treating Cutaneous Scarring” (priority 2012, published 2014)", "experiment_in_all_cases": "biochemical", "assay_type_in_all_cases": "biochemical", "key": {"266 human kinases [1]": {"target": "266 human kinases (Homo sapiens, UniProt P00533, L858R/T790M)", "settings": "EGFR(T790M,L858R)(h); 100 μM", "method_in_brief": "(§1)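 Radiometric filter-binding format: a positively charged substrate takes up radiolabelled phosphate from ATP unless the kinase is inhibited, then is captured on a negatively charged filter membrane. Counts from scintillation are expressed relative to a 100% activity control.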"}, "266 human kinases [2]": {"target": "266 human kinases (Homo sapiens, UniProt P07948)", "sequence (P07948 whole entry)": "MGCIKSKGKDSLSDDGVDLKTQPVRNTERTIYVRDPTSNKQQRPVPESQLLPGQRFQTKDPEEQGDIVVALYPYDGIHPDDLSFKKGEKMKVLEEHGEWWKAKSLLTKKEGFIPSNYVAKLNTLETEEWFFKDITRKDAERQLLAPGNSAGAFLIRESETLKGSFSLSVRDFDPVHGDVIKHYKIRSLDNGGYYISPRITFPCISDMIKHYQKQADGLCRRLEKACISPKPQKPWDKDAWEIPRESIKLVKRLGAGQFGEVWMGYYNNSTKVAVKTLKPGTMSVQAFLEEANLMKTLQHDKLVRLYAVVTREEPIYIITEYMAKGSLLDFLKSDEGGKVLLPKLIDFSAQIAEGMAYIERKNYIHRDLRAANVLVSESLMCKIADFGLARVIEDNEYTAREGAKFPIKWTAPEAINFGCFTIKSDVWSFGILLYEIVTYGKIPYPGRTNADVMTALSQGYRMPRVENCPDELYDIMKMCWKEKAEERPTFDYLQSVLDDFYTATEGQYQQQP", "settings": "Lyn(h); 100 μM", "method_in_brief": "as §1"}, "266 human kinases [3]": {"target": "266 human kinases (Homo sapiens, UniProt P08581)", "sequence (P08581 25-1390)": "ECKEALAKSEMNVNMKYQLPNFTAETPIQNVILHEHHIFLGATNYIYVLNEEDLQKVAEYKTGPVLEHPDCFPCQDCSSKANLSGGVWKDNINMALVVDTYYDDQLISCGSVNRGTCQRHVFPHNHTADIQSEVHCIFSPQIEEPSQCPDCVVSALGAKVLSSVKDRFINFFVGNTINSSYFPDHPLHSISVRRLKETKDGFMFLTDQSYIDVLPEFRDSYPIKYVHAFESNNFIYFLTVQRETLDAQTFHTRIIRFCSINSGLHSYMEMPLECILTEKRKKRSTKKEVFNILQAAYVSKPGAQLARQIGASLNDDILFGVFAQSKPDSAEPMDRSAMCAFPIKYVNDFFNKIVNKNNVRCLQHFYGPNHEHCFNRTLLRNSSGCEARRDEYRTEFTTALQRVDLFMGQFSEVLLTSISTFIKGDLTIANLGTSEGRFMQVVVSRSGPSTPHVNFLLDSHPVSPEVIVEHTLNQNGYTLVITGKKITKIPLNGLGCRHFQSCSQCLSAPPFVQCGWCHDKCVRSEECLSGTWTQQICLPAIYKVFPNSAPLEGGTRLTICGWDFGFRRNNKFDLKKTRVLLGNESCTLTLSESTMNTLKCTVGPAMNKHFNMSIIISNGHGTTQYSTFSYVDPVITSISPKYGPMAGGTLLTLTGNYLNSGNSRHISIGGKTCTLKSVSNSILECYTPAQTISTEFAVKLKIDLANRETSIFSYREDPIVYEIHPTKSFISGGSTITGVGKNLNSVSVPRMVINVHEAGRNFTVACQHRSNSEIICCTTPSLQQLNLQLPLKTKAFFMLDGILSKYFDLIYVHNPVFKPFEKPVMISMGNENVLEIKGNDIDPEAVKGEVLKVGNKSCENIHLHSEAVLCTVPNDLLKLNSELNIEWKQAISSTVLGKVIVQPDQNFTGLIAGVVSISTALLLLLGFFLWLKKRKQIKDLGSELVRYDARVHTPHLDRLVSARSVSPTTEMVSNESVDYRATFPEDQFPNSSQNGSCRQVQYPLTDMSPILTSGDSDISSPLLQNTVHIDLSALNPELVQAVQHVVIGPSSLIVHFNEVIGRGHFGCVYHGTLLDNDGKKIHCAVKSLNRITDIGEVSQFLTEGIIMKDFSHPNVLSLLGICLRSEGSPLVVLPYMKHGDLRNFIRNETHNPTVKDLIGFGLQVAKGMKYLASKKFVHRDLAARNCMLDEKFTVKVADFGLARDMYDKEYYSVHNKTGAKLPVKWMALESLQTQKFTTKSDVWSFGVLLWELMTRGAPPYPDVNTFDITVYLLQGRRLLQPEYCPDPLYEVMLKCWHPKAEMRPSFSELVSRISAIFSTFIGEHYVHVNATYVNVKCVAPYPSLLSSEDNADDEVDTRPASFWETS", "settings": "Met(h); 100 μM", "method_in_brief": "as §1"}, "266 human kinases [4]": {"target": "266 human kinases (Homo sapiens, UniProt P42345)", "settings": "100 μM", "method_in_brief": "as §1"}, "266 human kinases [5]": {"target": "T1, 266 human kinases (Homo sapiens, UniProt P43403)", "T1 sequence (P43403 1-619)": "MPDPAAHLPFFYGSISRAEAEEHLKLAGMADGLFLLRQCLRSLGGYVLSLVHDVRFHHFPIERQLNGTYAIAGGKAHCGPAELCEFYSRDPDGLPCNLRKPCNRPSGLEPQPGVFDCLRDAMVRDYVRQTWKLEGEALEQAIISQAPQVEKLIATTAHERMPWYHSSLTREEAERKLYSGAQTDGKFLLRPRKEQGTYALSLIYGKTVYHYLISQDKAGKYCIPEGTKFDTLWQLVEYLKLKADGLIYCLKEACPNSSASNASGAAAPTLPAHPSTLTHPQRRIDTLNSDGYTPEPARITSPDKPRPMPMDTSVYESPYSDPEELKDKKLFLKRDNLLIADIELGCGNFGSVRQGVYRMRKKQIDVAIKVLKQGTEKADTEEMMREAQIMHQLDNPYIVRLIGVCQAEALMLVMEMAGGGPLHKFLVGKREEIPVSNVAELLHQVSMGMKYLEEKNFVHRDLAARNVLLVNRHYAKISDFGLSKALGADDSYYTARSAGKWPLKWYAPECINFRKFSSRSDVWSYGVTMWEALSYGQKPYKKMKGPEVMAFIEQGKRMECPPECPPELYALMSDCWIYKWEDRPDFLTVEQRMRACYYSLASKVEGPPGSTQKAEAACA", "settings": "ZAP-70(h); 100 μM", "method_in_brief": "as §1"}, "266 human kinases [6]": {"target": "T2, 266 human kinases (Homo sapiens, UniProt P51813)", "T2 sequence (P51813 1-675)": "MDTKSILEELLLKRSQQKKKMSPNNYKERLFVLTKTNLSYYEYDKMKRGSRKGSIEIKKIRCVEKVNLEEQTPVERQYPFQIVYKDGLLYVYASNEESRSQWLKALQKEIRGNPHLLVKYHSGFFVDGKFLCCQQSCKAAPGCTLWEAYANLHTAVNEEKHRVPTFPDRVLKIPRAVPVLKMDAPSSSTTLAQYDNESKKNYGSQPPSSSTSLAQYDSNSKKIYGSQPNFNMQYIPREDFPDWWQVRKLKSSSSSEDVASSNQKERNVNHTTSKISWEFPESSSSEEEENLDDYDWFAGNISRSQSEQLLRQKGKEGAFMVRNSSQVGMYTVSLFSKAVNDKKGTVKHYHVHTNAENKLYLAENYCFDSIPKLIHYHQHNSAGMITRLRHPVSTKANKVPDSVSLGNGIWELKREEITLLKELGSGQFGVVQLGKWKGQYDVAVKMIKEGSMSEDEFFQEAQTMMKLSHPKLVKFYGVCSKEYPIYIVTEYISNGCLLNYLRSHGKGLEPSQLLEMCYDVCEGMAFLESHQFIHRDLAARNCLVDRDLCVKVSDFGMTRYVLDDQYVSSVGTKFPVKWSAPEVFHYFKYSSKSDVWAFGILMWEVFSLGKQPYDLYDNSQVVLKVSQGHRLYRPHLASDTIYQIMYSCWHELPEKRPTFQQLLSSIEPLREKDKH", "settings": "Bmx(h); 100 μM", "method_in_brief": "as §1"}, "266 human kinases [7]": {"target": "T3, 266 human kinases (Homo sapiens, UniProt Q8TF76)", "T3 sequence (Q8TF76 1-798)": "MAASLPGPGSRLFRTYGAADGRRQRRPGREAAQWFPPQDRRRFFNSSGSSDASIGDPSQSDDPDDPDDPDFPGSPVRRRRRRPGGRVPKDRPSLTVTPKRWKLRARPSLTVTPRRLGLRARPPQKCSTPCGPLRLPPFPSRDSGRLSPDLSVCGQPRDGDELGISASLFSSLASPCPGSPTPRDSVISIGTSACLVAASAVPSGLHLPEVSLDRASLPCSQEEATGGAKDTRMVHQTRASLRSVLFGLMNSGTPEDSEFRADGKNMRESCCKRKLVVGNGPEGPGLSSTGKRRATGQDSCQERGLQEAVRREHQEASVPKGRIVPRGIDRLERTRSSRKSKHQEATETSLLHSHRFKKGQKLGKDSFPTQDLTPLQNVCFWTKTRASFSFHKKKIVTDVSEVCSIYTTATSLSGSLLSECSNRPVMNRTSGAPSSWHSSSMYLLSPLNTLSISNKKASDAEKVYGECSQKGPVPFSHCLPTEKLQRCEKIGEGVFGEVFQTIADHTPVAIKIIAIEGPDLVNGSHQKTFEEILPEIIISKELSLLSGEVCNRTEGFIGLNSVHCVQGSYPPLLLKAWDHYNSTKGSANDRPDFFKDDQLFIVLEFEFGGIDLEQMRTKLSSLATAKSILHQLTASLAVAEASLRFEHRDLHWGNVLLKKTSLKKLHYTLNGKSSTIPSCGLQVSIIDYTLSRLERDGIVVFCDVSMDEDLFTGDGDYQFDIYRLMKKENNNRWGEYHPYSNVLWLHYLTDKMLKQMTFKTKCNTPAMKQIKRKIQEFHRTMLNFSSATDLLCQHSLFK", "settings": "Haspin(h); 100 μM", "method_in_brief": "as §1"}}, "data": [{"sequence": "HRRIKAWLKKIKALARQLGVAA (mammal) [MMI-0500]", "values": [{"measurement": "% activity", "setting": "266 human kinases [1]", "result": 53, "unit": "%"}, {"measurement": "% activity", "setting": "266 human kinases [2]", "result": 31, "unit": "%"}, {"measurement": "% activity", "setting": "266 human kinases [3]", "result": 27, "unit": "%"}, {"measurement": "% activity", "setting": "266 human kinases [4]; mTOR(h)", "result": 135, "unit": "%"}, {"measurement": "% activity", "setting": "266 human kinases [4]; mTOR/FKBP12(h)", "result": 140, "unit": "%"}, {"measurement": "% activity", "setting": "266 human kinases [5]", "result": 1, "unit": "%"}, {"measurement": "% activity", "setting": "266 human kinases [6]", "result": 45, "unit": "%"}, {"measurement": "% activity", "setting": "266 human kinases [7]", "result": 25, "unit": "%"}]}, {"sequence": "YARAAARQARAKALNRQLGVA (mammal) [MMI-0200]", "values": [{"measurement": "% activity", "setting": "266 human kinases [1]", "result": 108, "unit": "%"}, {"measurement": "% activity", "setting": "266 human kinases [2]", "result": 98, "unit": "%"}, {"measurement": "% activity", "setting": "266 human kinases [3]", "result": 71, "unit": "%"}, {"measurement": "% activity", "setting": "266 human kinases [4]; mTOR(h)", "result": 110, "unit": "%"}, {"measurement": "% activity", "setting": "266 human kinases [4]; mTOR/FKBP12(h)", "result": 118, "unit": "%"}, {"measurement": "% activity", "setting": "266 human kinases [5]", "result": 58, "unit": "%"}, {"measurement": "% activity", "setting": "266 human kinases [6]", "result": 76, "unit": "%"}, {"measurement": "% activity", "setting": "266 human kinases [7]", "result": 71, "unit": "%"}]}]}
